From patent US20230357348A1 (AstraZeneca / MedImmune, published 2023)
Starred links: 1 amine or outer side, 2 acyl side, 3 side chain; linkers in the order of their positions; H or OH if unused. Non-standard residues stand in square brackets, D forms with d. Groups on a side chain read outwards from the residue. No end group written: not given here. *: point of attachment. C20 diacid = O=C(O)CCCCCCCCCCCCCCCCCCC(=O)*; C18 diacid = O=C(O)CCCCCCCCCCCCCCCCC(=O)*; γGlu = O=C(O)[C@H](CCC(=O)[*:2])N[*:1]; αMeF = C[C@](N)(Cc1ccccc1)C(=O)O; AEEA = NCCOCCOCC(=O)O; Aib = CC(C)(N)C(=O)O

B1: Peptide 482 (peptide)
peptide: H[Aib]QGTFTSDVSK[αMeF]LESK([AEEA-AEEA-γGlu-C18 diacid])RAQDFVQWLL[Aib]E-OH
modifications: N-terminus assumed
SMILES: CC(C)C[C@H](NC(=O)[C@H](Cc1c[nH]c2ccccc12)NC(=O)[C@H](CCC(N)=O)NC(=O)[C@@H](NC(=O)[C@H](Cc1ccccc1)NC(=O)[C@H](CC(=O)O)NC(=O)[C@H](CCC(N)=O)NC(=O)[C@H](C)NC(=O)[C@H](CCCNC(=N)N)NC(=O)[C@H](CCCCNC(=O)COCCOCCNC(=O)COCCOCCNC(=O)CC[C@H](NC(=O)CCCCCCCCCCCCCCCCC(=O)O)C(=O)O)NC(=O)[C@H](CO)NC(=O)[C@H](CCC(=O)O)NC(=O)[C@H](CC(C)C)NC(=O)[C@](C)(Cc1ccccc1)NC(=O)[C@H](CCCCN)NC(=O)[C@H](CO)NC(=O)[C@@H](NC(=O)[C@H](CC(=O)O)NC(=O)[C@H](CO)NC(=O)[C@@H](NC(=O)[C@H](Cc1ccccc1)NC(=O)[C@@H](NC(=O)CNC(=O)[C@H](CCC(N)=O)NC(=O)C(C)(C)NC(=O)[C@@H](N)Cc1c[nH]cn1)[C@@H](C)O)[C@@H](C)O)C(C)C)C(C)C)C(=O)N[C@@H](CC(C)C)C(=O)NC(C)(C)C(=O)N[C@@H](CCC(=O)O)C(=O)O
B2: Peptide 487 (peptide)
peptide: H[Aib]QGTFTSDVSK[αMeF]LDTK([AEEA-AEEA-γGlu-C18 diacid])RARDFVQWLL[Aib]TE-OH
modifications: N-terminus assumed
SMILES: CC(C)C[C@H](NC(=O)[C@H](Cc1c[nH]c2ccccc12)NC(=O)[C@H](CCC(N)=O)NC(=O)[C@@H](NC(=O)[C@H](Cc1ccccc1)NC(=O)[C@H](CC(=O)O)NC(=O)[C@H](CCCNC(=N)N)NC(=O)[C@H](C)NC(=O)[C@H](CCCNC(=N)N)NC(=O)[C@H](CCCCNC(=O)COCCOCCNC(=O)COCCOCCNC(=O)CC[C@H](NC(=O)CCCCCCCCCCCCCCCCC(=O)O)C(=O)O)NC(=O)[C@@H](NC(=O)[C@H](CC(=O)O)NC(=O)[C@H](CC(C)C)NC(=O)[C@](C)(Cc1ccccc1)NC(=O)[C@H](CCCCN)NC(=O)[C@H](CO)NC(=O)[C@@H](NC(=O)[C@H](CC(=O)O)NC(=O)[C@H](CO)NC(=O)[C@@H](NC(=O)[C@H](Cc1ccccc1)NC(=O)[C@@H](NC(=O)CNC(=O)[C@H](CCC(N)=O)NC(=O)C(C)(C)NC(=O)[C@@H](N)Cc1c[nH]cn1)[C@@H](C)O)[C@@H](C)O)C(C)C)[C@@H](C)O)C(C)C)C(=O)N[C@@H](CC(C)C)C(=O)NC(C)(C)C(=O)N[C@H](C(=O)N[C@@H](CCC(=O)O)C(=O)O)[C@@H](C)O
B3: Peptide 484 (peptide)
peptide: H[Aib]QGTFTSDVSK[αMeF]LDTK([AEEA-AEEA-γGlu-C20 diacid])RAQDFVQWLL[Aib]E-OH
modifications: N-terminus assumed
SMILES: CC(C)C[C@H](NC(=O)[C@H](Cc1c[nH]c2ccccc12)NC(=O)[C@H](CCC(N)=O)NC(=O)[C@@H](NC(=O)[C@H](Cc1ccccc1)NC(=O)[C@H](CC(=O)O)NC(=O)[C@H](CCC(N)=O)NC(=O)[C@H](C)NC(=O)[C@H](CCCNC(=N)N)NC(=O)[C@H](CCCCNC(=O)COCCOCCNC(=O)COCCOCCNC(=O)CC[C@H](NC(=O)CCCCCCCCCCCCCCCCCCC(=O)O)C(=O)O)NC(=O)[C@@H](NC(=O)[C@H](CC(=O)O)NC(=O)[C@H](CC(C)C)NC(=O)[C@](C)(Cc1ccccc1)NC(=O)[C@H](CCCCN)NC(=O)[C@H](CO)NC(=O)[C@@H](NC(=O)[C@H](CC(=O)O)NC(=O)[C@H](CO)NC(=O)[C@@H](NC(=O)[C@H](Cc1ccccc1)NC(=O)[C@@H](NC(=O)CNC(=O)[C@H](CCC(N)=O)NC(=O)C(C)(C)NC(=O)[C@@H](N)Cc1c[nH]cn1)[C@@H](C)O)[C@@H](C)O)C(C)C)[C@@H](C)O)C(C)C)C(=O)N[C@@H](CC(C)C)C(=O)NC(C)(C)C(=O)N[C@@H](CCC(=O)O)C(=O)O
B4: Peptide 488 (peptide)
peptide: H[Aib]QGTFTSDVSK[αMeF]LDTK([AEEA-AEEA-γGlu-C20 diacid])RARDFVQWLL[Aib]TE-OH
modifications: N-terminus assumed
SMILES: CC(C)C[C@H](NC(=O)[C@H](Cc1c[nH]c2ccccc12)NC(=O)[C@H](CCC(N)=O)NC(=O)[C@@H](NC(=O)[C@H](Cc1ccccc1)NC(=O)[C@H](CC(=O)O)NC(=O)[C@H](CCCNC(=N)N)NC(=O)[C@H](C)NC(=O)[C@H](CCCNC(=N)N)NC(=O)[C@H](CCCCNC(=O)COCCOCCNC(=O)COCCOCCNC(=O)CC[C@H](NC(=O)CCCCCCCCCCCCCCCCCCC(=O)O)C(=O)O)NC(=O)[C@@H](NC(=O)[C@H](CC(=O)O)NC(=O)[C@H](CC(C)C)NC(=O)[C@](C)(Cc1ccccc1)NC(=O)[C@H](CCCCN)NC(=O)[C@H](CO)NC(=O)[C@@H](NC(=O)[C@H](CC(=O)O)NC(=O)[C@H](CO)NC(=O)[C@@H](NC(=O)[C@H](Cc1ccccc1)NC(=O)[C@@H](NC(=O)CNC(=O)[C@H](CCC(N)=O)NC(=O)C(C)(C)NC(=O)[C@@H](N)Cc1c[nH]cn1)[C@@H](C)O)[C@@H](C)O)C(C)C)[C@@H](C)O)C(C)C)C(=O)N[C@@H](CC(C)C)C(=O)NC(C)(C)C(=O)N[C@H](C(=O)N[C@@H](CCC(=O)O)C(=O)O)[C@@H](C)O
B5: Peptide 485 (peptide)
peptide: H[Aib]QGTFTSDVSK[αMeF]LDTK([AEEA-AEEA-γGlu-C20 diacid])RAQDFVQWLL[Aib]E-NH2
modifications: N-terminus assumed
SMILES: CC(C)C[C@H](NC(=O)[C@H](Cc1c[nH]c2ccccc12)NC(=O)[C@H](CCC(N)=O)NC(=O)[C@@H](NC(=O)[C@H](Cc1ccccc1)NC(=O)[C@H](CC(=O)O)NC(=O)[C@H](CCC(N)=O)NC(=O)[C@H](C)NC(=O)[C@H](CCCNC(=N)N)NC(=O)[C@H](CCCCNC(=O)COCCOCCNC(=O)COCCOCCNC(=O)CC[C@H](NC(=O)CCCCCCCCCCCCCCCCCCC(=O)O)C(=O)O)NC(=O)[C@@H](NC(=O)[C@H](CC(=O)O)NC(=O)[C@H](CC(C)C)NC(=O)[C@](C)(Cc1ccccc1)NC(=O)[C@H](CCCCN)NC(=O)[C@H](CO)NC(=O)[C@@H](NC(=O)[C@H](CC(=O)O)NC(=O)[C@H](CO)NC(=O)[C@@H](NC(=O)[C@H](Cc1ccccc1)NC(=O)[C@@H](NC(=O)CNC(=O)[C@H](CCC(N)=O)NC(=O)C(C)(C)NC(=O)[C@@H](N)Cc1c[nH]cn1)[C@@H](C)O)[C@@H](C)O)C(C)C)[C@@H](C)O)C(C)C)C(=O)N[C@@H](CC(C)C)C(=O)NC(C)(C)C(=O)N[C@@H](CCC(=O)O)C(N)=O
B6: Peptide 486 (peptide)
peptide: H[Aib]QGTFTSDVSK[αMeF]LDLK([AEEA-AEEA-γGlu-C20 diacid])RAQDFVRWLL[Aib]E-OH
modifications: N-terminus assumed
SMILES: CC(C)C[C@H](NC(=O)[C@H](CC(=O)O)NC(=O)[C@H](CC(C)C)NC(=O)[C@](C)(Cc1ccccc1)NC(=O)[C@H](CCCCN)NC(=O)[C@H](CO)NC(=O)[C@@H](NC(=O)[C@H](CC(=O)O)NC(=O)[C@H](CO)NC(=O)[C@@H](NC(=O)[C@H](Cc1ccccc1)NC(=O)[C@@H](NC(=O)CNC(=O)[C@H](CCC(N)=O)NC(=O)C(C)(C)NC(=O)[C@@H](N)Cc1c[nH]cn1)[C@@H](C)O)[C@@H](C)O)C(C)C)C(=O)N[C@@H](CCCCNC(=O)COCCOCCNC(=O)COCCOCCNC(=O)CC[C@H](NC(=O)CCCCCCCCCCCCCCCCCCC(=O)O)C(=O)O)C(=O)N[C@@H](CCCNC(=N)N)C(=O)N[C@@H](C)C(=O)N[C@@H](CCC(N)=O)C(=O)N[C@@H](CC(=O)O)C(=O)N[C@@H](Cc1ccccc1)C(=O)N[C@H](C(=O)N[C@@H](CCCNC(=N)N)C(=O)N[C@@H](Cc1c[nH]c2ccccc12)C(=O)N[C@@H](CC(C)C)C(=O)N[C@@H](CC(C)C)C(=O)NC(C)(C)C(=O)N[C@@H](CCC(=O)O)C(=O)O)C(C)C
B7: Peptide 489 (peptide)
peptide: H[Aib]QGTFTSDVSK[αMeF]LDTK([AEEA-AEEA-γGlu-C18 diacid])RARDFVQWLL[Aib]TE-NH2
modifications: N-terminus assumed
SMILES: CC(C)C[C@H](NC(=O)[C@H](Cc1c[nH]c2ccccc12)NC(=O)[C@H](CCC(N)=O)NC(=O)[C@@H](NC(=O)[C@H](Cc1ccccc1)NC(=O)[C@H](CC(=O)O)NC(=O)[C@H](CCCNC(=N)N)NC(=O)[C@H](C)NC(=O)[C@H](CCCNC(=N)N)NC(=O)[C@H](CCCCNC(=O)COCCOCCNC(=O)COCCOCCNC(=O)CC[C@H](NC(=O)CCCCCCCCCCCCCCCCC(=O)O)C(=O)O)NC(=O)[C@@H](NC(=O)[C@H](CC(=O)O)NC(=O)[C@H](CC(C)C)NC(=O)[C@](C)(Cc1ccccc1)NC(=O)[C@H](CCCCN)NC(=O)[C@H](CO)NC(=O)[C@@H](NC(=O)[C@H](CC(=O)O)NC(=O)[C@H](CO)NC(=O)[C@@H](NC(=O)[C@H](Cc1ccccc1)NC(=O)[C@@H](NC(=O)CNC(=O)[C@H](CCC(N)=O)NC(=O)C(C)(C)NC(=O)[C@@H](N)Cc1c[nH]cn1)[C@@H](C)O)[C@@H](C)O)C(C)C)[C@@H](C)O)C(C)C)C(=O)N[C@@H](CC(C)C)C(=O)NC(C)(C)C(=O)N[C@H](C(=O)N[C@@H](CCC(=O)O)C(N)=O)[C@@H](C)O

Columns and labels:
[1] = biological target: human glucagon receptor (hGCGR) (human, UniProt P47871 26-477); test: cell-based or functional assay
Sequence of human glucagon receptor (hGCGR) (P47871 26-477): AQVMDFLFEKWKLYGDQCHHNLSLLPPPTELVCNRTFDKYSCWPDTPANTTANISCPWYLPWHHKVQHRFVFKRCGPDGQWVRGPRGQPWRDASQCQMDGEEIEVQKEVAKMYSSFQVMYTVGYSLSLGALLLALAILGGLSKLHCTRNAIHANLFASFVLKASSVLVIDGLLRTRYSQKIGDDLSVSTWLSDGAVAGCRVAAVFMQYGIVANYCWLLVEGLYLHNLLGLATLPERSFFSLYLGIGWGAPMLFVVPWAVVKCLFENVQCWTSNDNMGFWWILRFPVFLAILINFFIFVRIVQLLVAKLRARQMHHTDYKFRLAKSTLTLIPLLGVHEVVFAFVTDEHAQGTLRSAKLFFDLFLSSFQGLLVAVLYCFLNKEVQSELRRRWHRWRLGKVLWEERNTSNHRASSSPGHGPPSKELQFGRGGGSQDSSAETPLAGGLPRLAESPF

[2] = biological target: human GLP-1 receptor (hGLP-1R) (human, UniProt P43220 24-463); test: cell-based or functional assay

Row | Binder | hGluc-R EC50 (pM) [1] | hGLP-1R EC50 (pM) [2]
1 | B1 | 691 pM | 190 pM
2 | B2 | 164 pM | 65.5 pM
3 | B3 | 169 pM | 339 pM
4 | B4 | 301 pM | 202 pM
5 | B5 | 90.4 pM | 219 pM
6 | B6 | 166 pM | 420 pM
7 | B7 | 168 pM | 22.8 pM
8 | H[Aib]QGTFTSDVSK[αMeF]LDTK([AEEA-AEEA-γGlu-C18 diacid])RAQDFVQWLL[Aib]E-OH [Peptide 483] | 169 pM | 178 pM
